Results: patent US8420051B2, “Muteins of hNGAL and related proteins with affinity for a given target” (Technische Universitaet Meunchen, priority 2008, dated 2013)
Where two headings read alike, the source gives them in different places.

Experiments:
[1] = target: selected hNGAL muteins from the library randomized at positions 33, 36, 41, 52, 54, 68, 70, 79, 81, 134, 136 and 138 (Homo sapiens, UniProt P80188); test: ELISA, hexachloronorbornene hapten; format: binding; conditions: preliminary, data not shown
Chain of selected hNGAL muteins from the library randomized at positions 33, 36, 41, 52, 54, 68, 70, 79, 81, 134, 136 and 138 (P80188 21-198, stated change not applied): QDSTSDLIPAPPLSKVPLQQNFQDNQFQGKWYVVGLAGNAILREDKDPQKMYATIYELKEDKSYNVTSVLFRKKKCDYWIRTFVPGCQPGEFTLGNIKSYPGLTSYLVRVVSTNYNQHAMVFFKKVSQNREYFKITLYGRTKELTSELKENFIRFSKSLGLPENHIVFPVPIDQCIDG
Excerpt: The hNGAL library obtained in Example 2 was used to generate muteins having affinity to a hexachloronorbonene hapten. In more detail, the hexachloronorbornene hapten used was hexachloronorbornene N—(CH2)5—COOH the synthesis of which was reported by Hilvert et al., J. Am. Chem. Soc. 1989, Vol. 111, 9261-9262 (compound 2 in FIG. 1 of Hilvert et al) which represents a transition state analogue for the [4+2] Diels-Alder reaction (see also, Xu et al., Science, 1999, Vol. 286, 2345-2348). Generation of the hNGAL muteins were carried out essentially in accordance with the experimental procedure as described in Example 3 above and muteins with binding activity to the to hexachloronorbornene hapten were isolated and characterized by ELISA.

[2] = target: T1, hNGAL mutein C26, SEQ ID NO: 10 (Yd5 + L42P/P48L/Q49L/I55T (155T [sic])/K75M) (Homo sapiens, UniProt P80188, C107S/D97E/I100T/I61A/I75T/K154S/K95M/L56R/L62P/L90R/P68L/Q48H/Q69L/R101M/S147Q/S88A/T156S/T165A/T74Q/V53Q/W99L/Y158L/Y72T); test: SPR (Biacore), immobilized Me•DTPA-RNase; format: binding
T1 construct: the mature hNGAL protein and the C-terminal Strep-tag II; OmpA signal peptide (N, cleaved yes); made in house; host or cells: E. coli BL21 or TG1-F- (periplasm), plasmid pNGAL15
T1 sequence (P80188 21-198 with the stated changes): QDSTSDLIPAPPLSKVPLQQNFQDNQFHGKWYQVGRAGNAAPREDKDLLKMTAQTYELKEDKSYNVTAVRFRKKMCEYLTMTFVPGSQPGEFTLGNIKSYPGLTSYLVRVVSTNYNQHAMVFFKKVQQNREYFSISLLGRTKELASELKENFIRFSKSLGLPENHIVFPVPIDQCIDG
Experimental: FIG. 2D depicts the kinetic real time analysis of hNGAL variant C26 measured on a Biacore instrument. The Y•DTPA-RNase conjugate was coupled via amine chemistry to a CM5 sensor chip (ΔRU=240) and the purified hNGAL variant C26 was applied at varying concentrations. The measured signal is shown as a grey line whereas the curve fit is depicted as a black line in each case.
(§1) Real time analysis of hNGAL variants was performed on a BIAcore X system (BIAcore, Uppsala, Sweden) using PBS/t (PBS containing 0.005% (v/v) Tween 20) as running buffer. 5 to 27 μg/ml solutions of the Me•DTPA-RNase conjugate in 10 mM Na-acetate, pH 5.0 were immobilized on a CM5 chip using standard amine coupling chemistry, resulting in a ligand density of 240 to 1800 resonance units (RU). The purified hNGAL variant was applied at a flow rate of 5 or 25 μl/min at concentrations of 0.5 up to 500 nM. The sensorgrams were corrected by subtraction of the corresponding signals measured for the control channel, which had been activated and blocked with ethanolamine. Kinetic data evaluation was performed by global fitting with BIAevaluation software V 3.0 (Karlsson et al. (1991) J. Immunol. Methods 145, 229-240). Alternatively, the plateau values at the end of the association phase (after 200 s) were plotted against the applied protein concentration and fitted as in the ELISA (see above) to determine the equilibrium dissociation constants (KO.
(§2) Finally, the hNGAL variants were analyzed by SPR using a Biacore CM-5 chip with the covalently attached Y-DTPA-RNaseA conjugate and applying the purified recombinant proteins (Table 3). […] The improved KD values result primarily from slower ligand dissociation.

[3] = target: T2, hNGAL mutein CL31, SEQ ID NO: 31 (L1 + V44M/N65D/G86S/S87P/S99N/L107F) (Homo sapiens, UniProt P80188, C107P/D67E/D97E/E64M/G106S/I100T/I61A/I75T/K154S/K66P/K70L/K95M/L127F/L56R/L62P/L90R/M71L/N85D/P68L/Q48H/Q69L/R101M/R63P/S119N/S147Q/S88A/T156S/T165A/T74Q/V53Q/W99L/Y158L/Y72T); test: SPR (Biacore), immobilized Y•DTPA-RNase; format: binding
T2 construct: the mature hNGAL protein and the C-terminal Strep-tag II; Strep-tag II (C); OmpA signal peptide (N, cleaved yes); made in house; host or cells: E. coli (periplasm)
T2 sequence (P80188 21-198 with the stated changes): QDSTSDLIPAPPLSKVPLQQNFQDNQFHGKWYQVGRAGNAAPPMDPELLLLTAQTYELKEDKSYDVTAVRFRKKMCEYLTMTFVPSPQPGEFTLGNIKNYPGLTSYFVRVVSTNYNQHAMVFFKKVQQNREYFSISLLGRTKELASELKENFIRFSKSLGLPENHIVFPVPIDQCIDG
Experimental: FIG. 2E depicts the kinetic real time analysis of hNGAL variant CL31 measured on a Biacore instrument at a flow rate of 25 μl/min. The Y•DTPA-RNase conjugate was coupled via amine chemistry to a CM5 sensor chip (ΔRU=300), and the purified hNGAL variant CL31 was applied at varying concentrations as indicated. The measured signal is shown as a gray line and the fitted curve as a black line in each case.
as §1

[4] = target: T3, hNGAL mutein L1, SEQ ID NO: 28 (C26 + R43P/E44V/K46P/D47E/K50L/M51L) (Homo sapiens, UniProt P80188, C107S/D67E/D97E/E64V/I100T/I61A/I75T/K154S/K66P/K70L/K95M/L56R/L62P/L90R/M71L/P68L/Q48H/Q69L/R101M/R63P/S147Q/S88A/T156S/T165A/T74Q/V53Q/W99L/Y158L/Y72T); test: SPR (Biacore), immobilized Y-DTPA-RNaseA; format: binding
T3 construct: the mature hNGAL protein and the C-terminal Strep-tag II; Strep-tag II (C); OmpA signal peptide (N, cleaved yes); made in house; host or cells: E. coli (periplasm)
T3 sequence (P80188 21-198 with the stated changes): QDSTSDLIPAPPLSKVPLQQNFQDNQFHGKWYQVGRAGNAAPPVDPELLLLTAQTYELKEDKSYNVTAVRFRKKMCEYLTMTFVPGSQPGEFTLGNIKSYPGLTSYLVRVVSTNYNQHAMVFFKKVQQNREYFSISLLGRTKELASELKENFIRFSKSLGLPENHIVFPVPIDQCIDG
Experimental: as §1
The new hNGAL variant L1 was analyzed by SPR as in Example 8 using a Biacore CM-5 chip with the covalently attached Y-DTPA-RNaseA conjugate and applying the purified recombinant protein.

[5] = target: T4, human neutrophil gelatinase-associated lipocalin (hNGAL, lipocalin 2, P80188), wild type, SEQ ID NO: 1 (Homo sapiens, UniProt P80188); test: SPR (Biacore), immobilized Me•DTPA-RNase; format: binding; conditions: immobilized Y-DTPA-RNaseA
T4 construct: the mature hNGAL protein and the C-terminal Strep-tag II; OmpA signal peptide (N, cleaved yes); made in house; host or cells: E. coli BL21 or TG1-F- (periplasm), plasmid pNGAL14
T4 sequence (P80188 21-198, one chain of several): as the sequence (P80188 21-198, stated change not applied) above
Experimental: as §1, §2

[6] = target: T5, hNGAL mutein Tb7.N9.N34, SEQ ID NO: 7 (Tb7.N9 + S127Q) (Homo sapiens, UniProt P80188, C107S/I100T/I61A/K154S/L56R/L90R/Q48H/R101M/S147Q/S88A/T165A/T74Q/V53Q/W99L/Y158L/Y72T); test: SPR (Biacore), immobilized Me•DTPA-RNase; format: binding; conditions: 5 μl/min
T5 construct: the mature hNGAL protein and the C-terminal Strep-tag II; Strep-tag II (C); OmpA signal peptide (N, cleaved yes); made in house; host or cells: E. coli BL21 or TG1-F- (periplasm), plasmid pNGAL15
T5 sequence (P80188 21-198 with the stated changes): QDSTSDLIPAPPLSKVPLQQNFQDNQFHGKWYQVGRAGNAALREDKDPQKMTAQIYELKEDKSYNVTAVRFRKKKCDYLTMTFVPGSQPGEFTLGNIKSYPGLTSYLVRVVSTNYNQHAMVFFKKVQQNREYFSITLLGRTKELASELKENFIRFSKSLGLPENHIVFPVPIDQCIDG
Experimental: as §1, §2

[7] = target: T6, hNGAL mutein Tb7, SEQ ID NO: 2 (Gln28His, Val33Gln, Leu36Arg, Ile41Ala, Tyr52Thr, Thr54Gln, Ser68Ala, Leu70Arg, Trp79Ala, Arg81Met, Cys87Ser, Lys134Ser, Tyr138L (Homo sapiens, UniProt P80188, C107S/I61A/K154S/L56R/L90R/Q48H/R101M/S88A/T165A/T74Q/V53Q/W99A/Y158L/Y72T)); test: SPR (Biacore), immobilized Me•DTPA-RNase; format: binding; conditions: 5 μl/min; for Kd: from the kinetic analysis, read-out: KD
T6 construct: the mature hNGAL protein and the C-terminal Strep-tag II; OmpA signal peptide (N, cleaved yes); made in house; host or cells: E. coli BL21 or TG1-F- (periplasm), plasmid pNGAL15
T6 sequence (P80188 21-198 Q48H/V53Q/L56R/I61A/Y72T/T74Q/S88A/L90R/W99A/R101M/C107S/K154S/Y158L/T165A): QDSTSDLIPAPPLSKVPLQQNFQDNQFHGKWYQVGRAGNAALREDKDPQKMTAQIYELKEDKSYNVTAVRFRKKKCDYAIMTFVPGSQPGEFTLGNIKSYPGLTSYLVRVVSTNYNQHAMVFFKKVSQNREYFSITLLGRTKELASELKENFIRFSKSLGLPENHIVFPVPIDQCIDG
Experimental: as §1, §2

[8] = target: T7, hNGAL mutein Tb7.N9, SEQ ID NO: 6 (Tb7 + A79L/I80T) (Homo sapiens, UniProt P80188, C107S/I100T/I61A/K154S/L56R/L90R/Q48H/R101M/S88A/T165A/T74Q/V53Q/W99L/Y158L/Y72T); test: SPR (Biacore), immobilized Me•DTPA-RNase; format: binding; conditions: 5 μl/min
T7 construct: the mature hNGAL protein and the C-terminal Strep-tag II; OmpA signal peptide (N, cleaved yes); made in house; host or cells: E. coli BL21 or TG1-F- (periplasm), plasmid pNGAL15
T7 sequence (P80188 21-198 Q48H/V53Q/L56R/I61A/Y72T/T74Q/S88A/L90R/W99L/I100T/R101M/C107S/K154S/Y158L/T165A): as the sequence (P80188 21-198 Q48H/V53Q/L56R/I61A/Y72T/T74Q/S88A/L90R/W99A/R101M/C107S/K154S/Y158L/T165A) above, with A79L, I80T counted along it
Experimental: as §1, §2

[9] = test system: hNGAL mutein Yd5, SEQ ID NO: 9 (Tb7.N9.N34 + D77E/T136S); test: SPR (Biacore), immobilized Me•DTPA-RNase; format: binding, human; conditions: vs parental Tb7
Experimental: as §1, §2

[10] = target: T8, hNGAL mutein Ya6, SEQ ID NO: 8 (Tb7.N9.N34 with Thr136Ser) (Homo sapiens, UniProt P80188, C107S/I100T/I61A/K154S/L56R/L90R/Q48H/R101M/S147Q/S88A/T156S/T165A/T74Q/V53Q/W99L/Y158L/Y72T); test: SPR (Biacore), immobilized Me•DTPA-RNase; format: binding; conditions: 5 μl/min; for Kd: from the kinetic analysis, read-out: KD
T8 construct: the mature hNGAL protein and the C-terminal Strep-tag II; Strep-tag II (C); OmpA signal peptide (N, cleaved yes); made in house; host or cells: E. coli BL21 or TG1-F- (periplasm), plasmid pNGAL15
T8 sequence (P80188 21-198 with the stated changes): as the sequence (P80188 21-198 Q48H/V53Q/L56R/I61A/Y72T/T74Q/S88A/L90R/W99A/R101M/C107S/K154S/Y158L/T165A) above, with A79L, I80T, S127Q, T136S counted along it
Experimental: as §1, §2

[11] = test system: hNGAL mutein Ya6, SEQ ID NO: 8 (Tb7.N9.N34 with Thr136Ser); test: SPR (Biacore), immobilized Me•DTPA-RNase; format: binding, human; conditions: vs parental Tb7
Experimental: as §1, §2

[12] = target: T9, hNGAL mutein Yd5, SEQ ID NO: 9 (Tb7.N9.N34 + D77E/T136S) (Homo sapiens, UniProt P80188, C107S/D97E/I100T/I61A/K154S/L56R/L90R/Q48H/R101M/S147Q/S88A/T156S/T165A/T74Q/V53Q/W99L/Y158L/Y72T); test: SPR (Biacore), immobilized Me•DTPA-RNase; format: binding; conditions: for Kd: from the kinetic analysis, read-out: KD
T9 construct: the mature hNGAL protein and the C-terminal Strep-tag II; OmpA signal peptide (N, cleaved yes); made in house; host or cells: E. coli BL21 or TG1-F- (periplasm), plasmid pNGAL15
T9 sequence (P80188 21-198 with the stated changes): as the sequence (P80188 21-198 Q48H/V53Q/L56R/I61A/Y72T/T74Q/S88A/L90R/W99A/R101M/C107S/K154S/Y158L/T165A) above, with D77E, A79L, I80T, S127Q, T136S counted along it
Experimental: as §1, §2

[13] = read-out: affinity to the metal chelate ligand
[14] = from the kinetic analysis, read-out: KD

O=C(O)CCCCCN1C(=O)C2C(C1=O)C1(Cl)C(Cl)=C(Cl)C2(Cl)C1(Cl)Cl (stereo not shown) [hexachloronorbornene hapten, hexachloronorbornene N—(CH2)5—COOH]
KD [1]: at least micromolar

B1: Y^3+•DTPA-RNase: p-SCN-Bn-CHX-A″-DTPA covalently coupled to bovine ribonuclease A (about 1:1), charged with Y^3+; ligand is the chelate group (conjugate, UniProt P61823 27-150, looked up)
Ribonuclease pancreatic: KETAAAKFERQHMDSSTSAASSSNYCNQMMKSRNLTKDRCKPVNTFVHESLADVQAVCSQKNVACKNGQTNCYQSYSTMSITDCRETGSSKYPNCAYKTTQANKHIIVACEGNPYVPVHFDASV
modifications: CHX-A''-DTPA chelate with Y3+
notes: p-SCN-Bn-CHX-A″-DTPA covalently coupled to bovine ribonuclease A (about 1:1), charged with Y^3+; ligand is the chelate group
koff ([2]; 5 μl/min): 0.000704 s⁻¹
kon ([2]; 5 μl/min): 2.5e+06 M⁻¹ s⁻¹
Kd ([2]; 5 μl/min, from the kinetic analysis, read-out: KD): 0.282 nM
Kd [2, 13]: 0.282 nM
association rate constant [3]: 446000 M⁻¹ s⁻¹
dissociation rate constant [3]: 0.000106 s⁻¹
half life of dissociation [3]: ca. 1.8 h
Kd [3, 13]: 0.237 nM
Kd [4]: 0.713 nM
association rate constant [4]: 296000 M⁻¹ s⁻¹
dissociation rate constant [4]: 0.000211 s⁻¹
binding activity [5]: did not exhibit any significant binding activity
koff [6]: 0.0208 s⁻¹
kon [6]: 1.57e+06 M⁻¹ s⁻¹
Kd [6, 14]: 13.2 nM
koff [7]: 0.1 s⁻¹
kon [7]: 998000 M⁻¹ s⁻¹
Kd ([7]; listed as Y-DTPA-RNaseA): 75 to 100 nM
Kd [7]: 100 nM
koff [8]: 0.023 s⁻¹
kon [8]: 1.61e+06 M⁻¹ s⁻¹
Kd [8, 14]: 14.3 nM
affinity improvement over Tb7 [9]: approximately 30 -fold
koff [10]: 0.00553 s⁻¹
kon [10]: 1.72e+06 M⁻¹ s⁻¹
Kd ([10]; listed as Y-DTPA-RNaseA): ~3 nM
Kd [10]: 3.2 nM
affinity improvement over Tb7 [11]: approximately 30 -fold
koff ([12]; 5 μl/min): 0.00345 s⁻¹
kon ([12]; 5 μl/min): 984000 M⁻¹ s⁻¹
Kd ([12]; 5 μl/min, listed as Y-DTPA-RNaseA): ~3 nM
Kd ([12]; 5 μl/min): 3.5 nM
τ1/2 ([12]; half life of dissociation, listed as Y-DTPA-RNaseA): ca. 200 s
